Values quoted from earlier work, collected in publication PMC2752191.

How the values were obtained:
[1] = target: Beclin1 peptide (UniProt Q14457)
[2] = target: Bak peptide (UniProt Q16611)
[3] = target: Bax peptide (UniProt Q07812)
Bax peptide, sequence (Q07812 55-74): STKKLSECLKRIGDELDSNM

vBcl-2, sequence (P89884 whole entry): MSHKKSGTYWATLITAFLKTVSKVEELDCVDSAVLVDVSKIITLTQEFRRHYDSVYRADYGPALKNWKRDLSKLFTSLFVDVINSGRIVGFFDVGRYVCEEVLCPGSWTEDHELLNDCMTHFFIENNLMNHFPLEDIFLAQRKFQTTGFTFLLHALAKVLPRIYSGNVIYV
Beclin1 peptide, sequence (Q14457 107-130): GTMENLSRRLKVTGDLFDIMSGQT

In the case of vBcl-2 (from UniProt P89884), the Kd [1] is given as 40 nM, the Kd [2] is given as 76 nM and the Kd [3] is given as 690 nM.
